Test results taken from the DeepSol protein solubility set.

Assay: soluble on expression in E. coli; label from the status in PepcDB or PDB records

Row | Sequence | soluble on expression in E. coli
1 | MGSDKIHHHHHHMSEIASTKARKRCAVYCRVSSDERLDQEFNSIDAQKEAGHAYVASQRSEGWISVADDYDDPGFSGGNTDRPGLKRLMADIERGQIDIVVVYKIDRLTRSLADFSKMVEVFERHEVSFVSVTQQFNTTTSMGRLMLNVLLSFAQFEREVTGERIRDKIAAAKRKGMWMGGVPPLGYDVDNRLLVINETEAAVVRRIFEEMLTIGSPTQIAVNLTADGITNKAWTTQEGQTRNGTRIDKKYLHNLLRNRIYLGELSHKGNWYPGAHLPIIDRELWDKVHAVLARDGHARSVETKIRSRTDALLRGLLYAPSGERMYPTYSRKNGRKYHYYVSKSESRFGAPGKSY | not soluble
2 | TIDAQLQKRAEQAFGDQAGAAVVMEVNTGEILAFVSNPEFDPALFAGRMPPEIWKQYLEDKRHPLENKALKGQYPPGSTYKIITALAGLEEGIIDDHTTVTCKGSYALGNTTFRCWDKKGHGAVDLRRALRESCDVYFYVLGEKLGIDRLSAYAQKFALGAPMGVGLDNEKGGLIPTSAWKLQRHKTRWFQGDTLSAAIGQGYVLMTPIQLASMTAAIATDGIVYRPRLVKRIIDRDGKVLREFQPEIITRADISPRSFKSVKEGLWAVVNESGGTGGMSRIPDVRVAGKTGTSQVVKLRDTRGFIPYQYRDHALFVAYAPYEHPEVAVAVVIEHGEHGGSAAAPIAGSILRAYFEGKGVIRR | not soluble
3 | MSDESPAFALHSGSSRQRKSLEFRFQQSPRWAPYSSASDGNEQKTSLVNNSLTRPNSSNPQCLNEENGFDRDSTAISTSFRSLLSLSESSVPWETPTNNQSSSLTHCSYPRVFCNPVSVCENPEPDHTQEDSSTNPGSSIMMSTRNHQGSPVEEEVSPNSSSNDMLLDVERSNDTEVANPRSEQGSMTHQRCGICKKLLSQKSPWSSYKILRSRDMPATGVFPCHHVYHVECLDKATPTAQTRDPSCPVCSNTIGVMEQPLIAPETLQMALRSLRRSRTALELETVRVPSNDNQRRHNTRRSHKWDKLSCCLNISFSSSS | soluble
4 | MIPTISDVSTVEEWRSVAKDIVQRDGDVNWRATIVDWPGLGYSARPKMDYDTDVMEKFVVDFMNSPESPMSQSGNDDLVIIGGGHAATLALRATQRGLLKPSAIAAVAPTWAGPLPIVFGRDSSMVSRYGMLRGTLRAPGVGWMMYNMLVSNEKSIESQYKSHVYADQTNVTDAIIQSRYELTKQKGSRYVPAAFLTGLLDPVSSREEFLQLFADLEGKLPVMVMSTKGAPKRSKAEMEALRGAKGVSKFVEVEGALLPQEEYPSLVAQELYNFLQETFAKC | not soluble
5 | MSLIDLKQYEFWFLVGSQYLYGLETLKKVEQQASKIVDSLNDDPIFPSKIVLKPVLKSSSEITEIFEKANADPKCAGVIVWMHTFSPSKMWIRGLSINKKPLLHLHTQYNREIPWDTIDMDYMNLNQSAHGDREHGFIHARMRLPRKVVVGHWEEKEVREKIAKWMRVACAIQDGRMGQIVRFGDNMREVASTEGDKVEAQIKLGWSINTWGVGELAERVKAVPEREVEELLKEYREKYIMPEDEYSLKAIREQAKIEIALREFLKEKNAVGFTTTFEDLHDLPQLPGLAVQRLMEEGYGFGAEGDWKAAGLVRAIKVMGTSLPGGTSFMEDYTYHLTPGNELVLGAHMLEVCPTIAKEKPRIEVHPLSIGGKADPARLVFDGQEGPAVNASIVDMGNRFRLVVNKVLSVPIERKMPKLPTARVLWKPLPDFKRATTAWILAGGSHHTAFSTAIDVEYLIDWAEALEIEYVVIDENLDLEDFKKELRWNELYWGLLKREGHHHHHH | soluble
6 | MKEDTLLRKLVADGEGVGDDRKVQQIATFFRESRKEDAKTSVPEAVKVTKAIEEMYKKMEVAKNELADAKIVKRNRQEYRKLVNVLEEVPSRAETTRKLGEVKDDLERQHERQKVLEAKLMDRRNHLQAFMIILSNFQRFCAEDDDDDAEVMSNPGEDDDAASVTEKQQEDDVRK | not soluble
7 | MATRRRIGVAAIQKKQETANKFAAKGDQMAGEQLVQFSQQLEQLSAGLEMFAQRHRDEIKKNSQFRRHFQEMCASVGVDPLASSKGFWAKALGFGDFYYELGIQIVEICLSTTHINGGIMTVEEIRNRLMRTRSRTRKDTISTDDILRAVDKLKVLGNGFELVPLGGGRFLVQSVPGELSMDHSRVLQLAEDAAYVTKELIIDKLRWDEARASSALEHLVKEGLAWTDEQASDTTQYWFPSLFLQQYCHSSSSTSVSESLHSMSFNNYQ | not soluble
8 | MGKTNLAPGFRFHPTDVELVRYYLKRKVMGKKFQVDAIAEVDIYKFEPPDLPDKSCLGTGDLKWYFFCPREKKYPKGGKANRSTECGYWKTTGRDRDVSYNDEVTGKIRTLIYHYGKIPRGDRTDWVIHEYRLEDKVLAQKNVPQDTYVLCVLFKKNGLGPRHGSQYGAPFKEEDWSDKEEEYTQNHLVAGPSKETSLAAKASHSYAPKDGLTGVISESCVSDVPPLTATVLPPLTSDVIAYNPFSSSPLLEVPQVSLDGGELNSMLDLFSVDNDDCLLFDDFDYHNEVRHPDGFVNKEAPVFLGDGNFSGMFDLSNDQVVELQDLIQSPTPHPPSPPAQASIPDDSRSNGQTKDD | soluble
9 | MEEPMEVDNKRPKVLTWTEKYRPKTLDDIAYQDEVVTMLKGALQGRDLPHLLFYGPPGTGKTSAALAFCRQLFPKNIFHDRVLDLNASDERGIAVVRQKIQSFSKSSLGHSHREDVLKLKIIILDEVDAMTREAQAAMRRVIEDFSKTTRFILICNYVSRLIPPVVSRCAKFRFKSLPAEIQVQRLRTICDAEGTPMSDDELKQVMEYSEGDLRRAVCTLQSLAPILKSGDDNARNCYLRGSSDSLLISNVCKSILTADVPQIIALTKDITKSCTGVAFIRRCFQQLMDEDVINDENIGVMGKLVATCEKRILDGCDLENNLLDFLLTLRETIQ | not soluble
10 | MGSDKIHHHHHHMRYNCLYLIFKESRFVKIAIVANTSWNIYNFRLNLIHFFLAHKYEVVCIAPVDRHTEALTTLPVTFVPVEIDSKGNNPIKDARLVGKFLSIYKKHKPDVILQYTIKPNIYGTLAAKLCGIPTINTVTGLGTVFLHDTCITRLAQQLYAFSFKFATVAVFQNEDDRDIFVQKRIITHAKTQIIKGSGVNTTHFIPAKTYSKAFAFLMVARLLYDKGIREYAQAAKCLHEQHGNNVQCLLIGAIDSDKQLGINKEDVHAWANRHHLIYKPFDTAILKEYQQANVVVLPSYREGLSKSLLEAGACGKPLIASNVSGCKEIVIDNWNGYLCEAKDAGNLFDKMNLMLETSPEQLAEMGKNSRDFIEQNFSDKIISNDYFYLIKRVTESKKTNTNDIH | not soluble
11 | SLSSTVSYWILNSTRNSIATLQGGRRLYSRYVSNRNKLKWRLFSRVPPTLNSSPCGGFTLCKAYRHTSTEEDDFHLQLSPEQINEVLRAGETTHKILDLESRVPNSVLRFESNQLAANSPVEDRRGVASCLQTNGLMFGIFDGHGGHACAQAVSERLFYYVAVSLMSHQTLEHMEGAMESMKPLLPILHWLKHPGDSIYKDVTSVHLDHLRVYWQELLDLHMEMGLSIEEALMYSFQRLDSDISLEIQAPLEDEVTRNLSLQVAFSGATACMAHVDGIHLHVANAGDCRAILGVQEDNGMWSCLPLTRDHNAWNQAELSRLKREHPESEDRTIIMEDRLLGVLIPCRAFGDVQLKWSKELQRSILERGFNTEALNIYQFTPPHYYTPPYLTAEPEVTYHRLRPQDKFLVLASDGLWDMLSNEDVVRLVVGHLAEADWHKTDLAQRPANLGLMQSLLLQRKASGLHEADQNAATRLIRHAIGNNEYGEMEAERLAAMLTLPEDLARMYRDDITVTVVYFNSESIGAYYKGG | not soluble
12 | NKNAFLIVRGNLTYAHSEYLKYEDNTYDKEWWKYKIGYSPNQKWGYIAEGLFIDDAEVANSPVQFGDYKAGDIKYRDMNGDGVINSLDQVPIGHPTSPEINYGFGSTFSYKGFDINFQFHGSAQSSFWIDYDKMSPFFKDSKMSQKTNNQLVKFIANSYWSESNRNRYATWPRLSTTSVANNKELSTWFMRDGSFLRLKLVELGYTVPQKIVSKWGMSNLRLYMSSTNLFVLSKFKDWDVELAGNGLNYPLQRVFNIGVNVSF | not soluble
13 | MTVEASRPARSRQAVIFCYNAGYLPFALHAAERIDRLTPGRAFDICICHGEEPILVPDSLSRLDVRLIRIDTTGVFTGLRLDPGRTHDVYLRLALPQALAADYDRILYLDADIFVQGGDFTALLGLDLGNHPLGAVRDNIQWRTPERRAEQFRRLGIPAAPYFNAGLLLMDVARYNEMNLLDRCVELGRREASRMIRHDQNLYNAVLRGDWAELSPMWNWQYSWSARLFEAMRYPHIVHFIGTLKPWADRKGHYSPRFAQSYDRFIADHFPDRPRNPVSGGLSPDSRMMRRMLVKHFLSSSKLARYLDRFPSDLTVIRLEHHHHHH | not soluble
